Assay results published in US20250000936A1, “TREATMENT OF GEOGRAPHIC ATROPHY” (Apellis Pharmaceuticals, Inc., priority 2021, published 2025).
Several values for one entry are separate records, joined by “and”; a condition that tells them apart may be missing. Identical values can stand only once.

Columns and labels:
[1] = test system: patients with geographic atrophy (GA) secondary to age-related macular degeneration (AMD); assay: OAKS Phase 3 study: GA lesion growth in study eye by fundus autofluorescence; assay type: in vivo, human
Source text: This Example describes 12-month results from two Phase 3 multi-center, randomized, double-masked, sham-controlled studies (“DERBY” and “OAKS”) to compare the efficacy and safety of intravitreal APL-2 (pegcetacoplan, also referred to as “Study Drug” in this Example) therapy with sham injections in patients with geographic atrophy (GA) secondary to age-related macular degeneration (AMD).
To participate in the studies, subjects must have been diagnosed with GA of the macula secondary to AMD in the study eye. At screening, male and female subjects were required to fulfill all of the following inclusion criteria to be eligible for participation in the study. If both eyes met the inclusion criteria, the eye with the worst normal luminance visual acuity at the screening visit was designated as the study eye. If both eyes had the same visual acuity, the right eye was selected as the study eye. Ocular-specific inclusion criteria applied to the study eye only, unless otherwise specified.
The design of the DERBY and OAKS studies are schematically depicted in FIG. 2. […] As part of the screening process, the reading center evaluated FAF, OCT, Digital Color Fundus Photograph (DCFP), Near Infrared Reflectance (NIR), and fluorescein angiography (FA) to provide an objective assessment of subject eligibility. […]
Subjects were analyzed in the treatment arm assigned at randomization. […]

[2] = test system: patients with geographic atrophy (GA) secondary to age-related macular degeneration (AMD); assay: DERBY Phase 3 study: safety; conditions: for Patients with new onset fellow eye eAMD: through 18 months
Method: All randomized subjects returned every month to the clinical site for assessments and additional pegcetacoplan or sham injections according to their randomization scheme until Month 12. From Month 12 onwards, subjects return to the clinical site based on their randomized treatment schedule (monthly or EOM) and follow the treatment regimen and assessments outlined in the Visit Schedule until Month 24. Safety was assessed throughout the study by a number of evaluations including: monitoring of AEs, preinjection and postinjection monitoring, blood and urine samples collected, physical examination, vital signs, and follow-up phone calls. Blood samples were also be collected for anti-therapeutic antibodies, genotyping, and clinical repository (if the subject consented to this portion).
The Safety set consisted of all subjects randomized who received at least one injection of pegcetacoplan or sham. Subjects were analyzed according to the actual treatment received. […] This population was used for all safety analyses.

[3] = PEOM (every other month), 12 months
[4] = PEOM (every other month), 18 months
[5] = PEOM (every other month), N=208

Substance: Poly(oxy-1,2-ethanediyl), α-hydro-ω-hydroxy-, 15,15′-diester with N-acetyl-L-isoleucyl-L-cysteinyl-L-valyl-1-methyl-L-tryptophyl-L-glutaminyl-L-α-aspartyl-L-tryptophylglycyl-L-alanyl-L-histidyl-L-arginyl-L-cysteinyl-L-threonyl-2-[2-(2-aminoethoxy) ethoxy]acetyl-N^6-carboxy-L-lysinamide cyclic (2->12)-(disulfide) [pegcetacoplan]
- reduction in GA lesion growth versus sham ([1]; distance ≤250 microns, every other month, p=0.0008): 19%
- reduction in GA lesion growth versus sham ([1]; lesion distance to foveal center point >250 microns, monthly, p=0.0012): 30%
- All TEAEs, Total events, M [2, 3]: 600
- All TEAEs, patients [2, 3]: 155 (74.5%) n (%)
- Cases of MNV (FA) detected by reading center but not reported by Investigator as AE [2, 3]: 1
- Non-ocular TEAEs, Patients [2, 3]: 110 (52.9%) n (%)
- Non-ocular TEAEs, events M [2, 3]: 339
- Ocular TEAE in study eye Vitreous floaters, events M [2, 3]: 5
- Ocular TEAE in study eye Vitreous floaters, patients [2, 3]: 4 (1.9%) n (%)
- Ocular TEAEs in study eye, Patients [2, 3]: 91 (43.8%) n (%) and 91 (43.8) n (%)
- Ocular TEAEs in study eye, events M [2, 3]: 162
- Serious ocular TEAE Dry AMD, patients [2, 3]: 0 n (%)
- Serious ocular TEAE Endophthalmitis, patients [2, 3]: 0 n (%)
- Serious ocular TEAE Macular hole, patients [2, 3]: 0 n (%)
- Serious ocular TEAE Optic ischemic neuropathy, patients [2, 3]: 0 n (%)
- Serious ocular TEAE Papilledema, patients [2, 3]: 0 n (%)
- Serious ocular TEAE Retinal detachment, patients [2, 3]: 0 n (%)
- Serious ocular TEAE Vitritis, patients [2, 3]: 0 n (%)
- Serious ocular TEAEs in the study eye, patients [2, 3]: 0 n (%)
- Sum of investigator-determined eAMD and reading center cases not reported by investigators [2, 3]: (3.8%)
- Sum of investigator-determined eAMD and reading center cases not reported by investigators ([2]; PEOM (every other month), 12 months, count): 8
- All TEAEs, Total events, M [2, 4]: 835
- All TEAEs, patients [2, 4]: 171 (82.2%) n (%)
- Non-ocular TEAEs, M [2, 4]: 495
- Non-ocular TEAEs, Patients [2, 4]: 132 (63.5%) n (%)
- Ocular TEAEs in study eye, M [2, 4]: 216
- Ocular TEAEs in study eye, Patients [2, 4]: 99 (47.6%) n (%)
- Discontinued study prior to Month 12, reason Adverse Event [2, 5]: 4 (1.9%) n (%)
- Discontinued study prior to Month 12, reason Death [2, 5]: 0 n (%)
- Discontinued study prior to Month 18, reason Adverse event [2, 5]: 4 (1.9%) n (%)
- Discontinued study prior to Month 18, reason Death [2, 5]: 4 (1.9%) n (%)
- Patients with new onset fellow eye eAMD ([2]; PEOM (every other month), 166 patients without baseline fellow eye CNV): 8 (4.8%) n (%)
- All TEAEs, Total events, M ([2]; PM (monthly), 12 months): 708
- All TEAEs, patients ([2]; PM (monthly), 12 months): 158 (76.7%) n (%)
- Cases of MNV (FA) detected by reading center but not reported by Investigator as AE ([2]; PM (monthly), 12 months): 0
- Non-ocular TEAEs, Patients ([2]; PM (monthly), 12 months): 127 (61.7%) n (%)
- Non-ocular TEAEs, events M ([2]; PM (monthly), 12 months): 396
- Ocular TEAE in study eye Vitreous floaters, events M ([2]; PM (monthly), 12 months): 22
- Ocular TEAE in study eye Vitreous floaters, patients ([2]; PM (monthly), 12 months): 18 (8.7%) n (%)
- Ocular TEAEs in study eye, Patients ([2]; PM (monthly), 12 months): 100 (48.5%) n (%)
- Ocular TEAEs in study eye, events M ([2]; PM (monthly), 12 months): 227
- Serious ocular TEAE Dry AMD, patients ([2]; PM (monthly), 12 months): 0 n (%)
- Serious ocular TEAE Endophthalmitis, patients ([2]; PM (monthly), 12 months): 0 n (%)
- Serious ocular TEAE Macular hole, patients ([2]; PM (monthly), 12 months): 0 n (%)
- Serious ocular TEAE Optic ischemic neuropathy, patients ([2]; PM (monthly), 12 months): 0 n (%)
- Serious ocular TEAE Papilledema, patients ([2]; PM (monthly), 12 months): 0 n (%)
- Serious ocular TEAE Retinal detachment, patients ([2]; PM (monthly), 12 months): 0 n (%)
- Serious ocular TEAE Vitritis, events M ([2]; PM (monthly), 12 months): 1
- Serious ocular TEAE Vitritis, patients ([2]; PM (monthly), 12 months): 1 (0.5%) n (%)
- Serious ocular TEAEs in the study eye, events M ([2]; PM (monthly), 12 months): 1
- Serious ocular TEAEs in the study eye, patients ([2]; PM (monthly), 12 months): 1 (0.5%) n (%)
- Sum of investigator-determined eAMD and reading center cases not reported by investigators ([2]; PM (monthly), 12 months): (6.8%)
- Sum of investigator-determined eAMD and reading center cases not reported by investigators ([2]; PM (monthly), 12 months, count): 14
- All TEAEs, Total events, M ([2]; PM (monthly), 18 months): 993
- All TEAEs, patients ([2]; PM (monthly), 18 months): 170 (82.5%) n (%)
- Non-ocular TEAEs, M ([2]; PM (monthly), 18 months): 567
- Non-ocular TEAEs, Patients ([2]; PM (monthly), 18 months): 148 (71.8%) n (%)
- Ocular TEAEs in study eye, M ([2]; PM (monthly), 18 months): 308
- Ocular TEAEs in study eye, Patients ([2]; PM (monthly), 18 months): 118 (57.3%) n (%)
- Discontinued study prior to Month 12, reason Adverse Event ([2]; PM (monthly), N=206): 1 (0.5%) n (%)
- Discontinued study prior to Month 12, reason Death ([2]; PM (monthly), N=206): 5 (2.4%) n (%)
- Discontinued study prior to Month 18, reason Adverse event ([2]; PM (monthly), N=206): 3 (1.5%) n (%)
- Discontinued study prior to Month 18, reason Death ([2]; PM (monthly), N=206): 6 (2.9%) n (%)
- Patients with new onset fellow eye eAMD ([2]; PM (monthly), 167 patients without baseline fellow eye CNV): 4 (2.4%) n (%)
- patients with study eye investigator-determined new-onset exudative AMD ([2]; every other month, month 18, 11/208 patients): 5.3%
- patients with study eye investigator-determined new-onset exudative AMD ([2]; monthly, month 18, 24/206 patients): 11.7%
